Reference: IntAct's records for PubMed 23559066

B1: Autophagy-related protein 32 (Saccharomyces cerevisiae), P40458 (parent)
chain: MVLEYQQREGKGSSSKSMPPDSSSTTIHTCSEAQTGEDKGLLDPHLSVLELLSKTGHSPSPMGQNLVTSIDISGNHNVNDSISGSWQAIQPLDLGASFIPERCSSQTTNGSILSSSDTSEEEQELLQAPAADIINIIKQGQEGANVVSPSHPFKQLQKIISLPLPGKEKTPFNEQDDDGDEDEAFEEDSVTITKSLTSSTNSFVMPKLSLTQKNPVFRLLILGRTGSSFYQSIPKEYQSLFELPKYHDSATFPQYTGIVIIFQELREMVSLLNRIVQYSQGKPVIPICQPGQVIQVKNVLKSFLRNKLVKLLFPPVVVTNKRDLKKMFQRLQDLSLEYGEDVNEEDNDDEAIHTKSRSYCRNKKAENSKKKSPKSNKKPKRKKQKFFTSWFTWGISITIGISFGCCVTYFVTAAYEHQTVKSLSLRPSILASLLSLDSSSDTINTPATASPSSTEQFLWFDKGTLQINFHSDGFIMKSLTIIKETWGKMNTFVLHALSKPLKFLENLNKSSEFSIDESNRILALGYILL
partner: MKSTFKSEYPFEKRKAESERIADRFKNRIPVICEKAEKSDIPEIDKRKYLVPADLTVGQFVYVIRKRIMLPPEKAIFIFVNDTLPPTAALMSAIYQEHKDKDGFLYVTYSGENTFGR
B2: Autophagy-related protein 36 (Saccharomyces cerevisiae), P46983 (parent)
chain: MASVNNYQVDCGSRSARIQPRINNGIHDEESLFEVLELSEEEFELDFHRLKSFNDVRVINNPDLSPECTNTAISRDETLESASSAFEVPSDEIAILSISSDSNKNSPPSEQPAPALRNIRSSSNSDRIDEWCLGSHLFNELHQNVPQSSDGVNHGFPVYSFKERELYTSAKLKKLTNAQRIAVQKLSRDLYPILRTCYREKTRRQLLTYHHERIFDDIPSFFPQRDFIFNYYSMPLEFDRLSDVDIDSSSRSRFTDESTGETLNRSPSAASSSLENTSWFGWTLLSRFLDREW
partner: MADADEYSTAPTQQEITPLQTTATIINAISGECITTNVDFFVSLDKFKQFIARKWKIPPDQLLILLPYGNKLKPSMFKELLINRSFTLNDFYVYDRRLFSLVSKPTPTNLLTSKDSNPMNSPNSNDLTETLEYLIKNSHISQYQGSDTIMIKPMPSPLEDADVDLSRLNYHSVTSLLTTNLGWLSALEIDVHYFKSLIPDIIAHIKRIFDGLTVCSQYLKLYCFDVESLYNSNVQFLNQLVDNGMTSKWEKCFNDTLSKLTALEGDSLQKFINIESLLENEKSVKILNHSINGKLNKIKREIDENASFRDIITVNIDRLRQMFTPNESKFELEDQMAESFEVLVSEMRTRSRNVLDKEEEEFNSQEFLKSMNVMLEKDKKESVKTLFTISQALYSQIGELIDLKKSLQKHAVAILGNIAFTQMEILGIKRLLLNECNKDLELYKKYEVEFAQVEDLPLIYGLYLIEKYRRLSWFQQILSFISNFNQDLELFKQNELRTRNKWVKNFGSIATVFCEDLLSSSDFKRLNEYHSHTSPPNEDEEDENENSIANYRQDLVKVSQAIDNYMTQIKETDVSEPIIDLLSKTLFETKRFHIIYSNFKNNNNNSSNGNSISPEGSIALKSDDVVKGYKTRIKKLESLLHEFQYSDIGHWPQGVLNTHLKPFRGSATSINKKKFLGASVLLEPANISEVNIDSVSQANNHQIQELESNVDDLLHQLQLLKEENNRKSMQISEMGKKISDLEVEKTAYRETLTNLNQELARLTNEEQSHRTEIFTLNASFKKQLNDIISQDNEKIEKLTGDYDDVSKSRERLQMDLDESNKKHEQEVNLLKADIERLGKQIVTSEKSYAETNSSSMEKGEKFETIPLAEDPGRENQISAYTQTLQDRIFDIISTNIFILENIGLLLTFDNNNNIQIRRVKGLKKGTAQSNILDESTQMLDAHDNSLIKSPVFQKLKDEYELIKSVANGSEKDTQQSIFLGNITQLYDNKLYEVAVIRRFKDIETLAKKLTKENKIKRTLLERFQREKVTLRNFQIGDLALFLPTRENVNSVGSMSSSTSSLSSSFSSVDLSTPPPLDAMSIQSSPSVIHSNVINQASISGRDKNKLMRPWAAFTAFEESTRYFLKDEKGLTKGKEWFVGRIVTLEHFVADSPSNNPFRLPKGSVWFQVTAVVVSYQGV
B3: Autophagy-related protein 32 (Saccharomyces cerevisiae), P40458 (parent)
chain: B1 chain
partner: B2 partner
B4: Autophagy-related protein 36 (Saccharomyces cerevisiae), P46983 (parent)
chain: B2 chain
partner: B1 partner

Variants of: B1
Conditions: with atg8_yeast ATG8, P38182

| Variant | effect of a mutation on the interaction |
| --- | --- |
| MVLEYQQREGKGSSSKSMPPDSSSTTIHTCSEAQTGEDKGLLDPHLSVLELLSKTGHSPSPMGQNLVTSIDISGNHNVNDAIAGAWQAIQPLDLGASFIPERCSSQTTNGSILSSSDTSEEEQELLQAPAADIINIIKQGQEGANVVSPSHPFKQLQKIISLPLPGKEKTPFNEQDDDGDEDEAFEEDSVTITKSLTSSTNSFVMPKLSLTQKNPVFRLLILGRTGSSFYQSIPKEYQSLFELPKYHDSATFPQYTGIVIIFQELREMVSLLNRIVQYSQGKPVIPICQPGQVIQVKNVLKSFLRNKLVKLLFPPVVVTNKRDLKKMFQRLQDLSLEYGEDVNEEDNDDEAIHTKSRSYCRNKKAENSKKKSPKSNKKPKRKKQKFFTSWFTWGISITIGISFGCCVTYFVTAAYEHQTVKSLSLRPSILASLLSLDSSSDTINTPATASPSSTEQFLWFDKGTLQINFHSDGFIMKSLTIIKETWGKMNTFVLHALSKPLKFLENLNKSSEFSIDESNRILALGYILL [S81A;S83A;S85A] | disrupting interaction |

Variants of: B2
Conditions: with atg11_yeast ATG11, Q12527

| Variant | effect of a mutation on the interaction |
| --- | --- |
| MASVNNYQVDCGSRSARIQPRINNGIHDEESLFEVLELSEEEFELDFHRLKSFNDVRVINNPDLSPECTNTAISRDETLESASSAFEVPSDEIAILAISSDSNKNSPPSEQPAPALRNIRSSSNSDRIDEWCLGSHLFNELHQNVPQSSDGVNHGFPVYSFKERELYTSAKLKKLTNAQRIAVQKLSRDLYPILRTCYREKTRRQLLTYHHERIFDDIPSFFPQRDFIFNYYSMPLEFDRLSDVDIDSSSRSRFTDESTGETLNRSPSAASSSLENTSWFGWTLLSRFLDREW [S97A] | disrupting interaction |

Variants of: B3
Conditions: with atg11_yeast ATG11, Q12527

| Variant | effect of a mutation on the interaction |
| --- | --- |
| MVLEYQQREGKGSSSKSMPPDSSSTTIHTCSEAQTGEDKGLLDPHLSVLELLSKTGHSPSPMGQNLVTSIDISGNHNVNDSISGSWQAIQPLDLGASFIPERCSSQTTNGSILASSDTAEEEQELLQAPAADIINIIKQGQEGANVVSPSHPFKQLQKIISLPLPGKEKTPFNEQDDDGDEDEAFEEDSVTITKSLTSSTNSFVMPKLSLTQKNPVFRLLILGRTGSSFYQSIPKEYQSLFELPKYHDSATFPQYTGIVIIFQELREMVSLLNRIVQYSQGKPVIPICQPGQVIQVKNVLKSFLRNKLVKLLFPPVVVTNKRDLKKMFQRLQDLSLEYGEDVNEEDNDDEAIHTKSRSYCRNKKAENSKKKSPKSNKKPKRKKQKFFTSWFTWGISITIGISFGCCVTYFVTAAYEHQTVKSLSLRPSILASLLSLDSSSDTINTPATASPSSTEQFLWFDKGTLQINFHSDGFIMKSLTIIKETWGKMNTFVLHALSKPLKFLENLNKSSEFSIDESNRILALGYILL [S114A;S119A] | disrupting interaction |

Variants of: B4
Conditions: with atg8_yeast ATG8, P38182

| Variant | effect of a mutation on the interaction |
| --- | --- |
| MASVNNYQVDCGSRSARIQPRINNGIHDEESLAEVAELSEEEFELDFHRLKSFNDVRVINNPDLSPECTNTAISRDETLESASSAFEVPSDEIAILSISSDSNKNSPPSEQPAPALRNIRSSSNSDRIDEWCLGSHLFNELHQNVPQSSDGVNHGFPVYSFKERELYTSAKLKKLTNAQRIAVQKLSRDLYPILRTCYREKTRRQLLTYHHERIFDDIPSFFPQRDFIFNYYSMPLEFDRLSDVDIDSSSRSRFTDESTGETLNRSPSAASSSLENTSWFGWTLLSRFLDREW [F33A;L36A] | disrupting interaction |

Variants of: B4
Conditions: with atg8_yeast ATG8, P38182
Remark: another data set of the same source

| Variant | effect of a mutation on the interaction |
| --- | --- |
| MASVNNYQVDCGSRSARIQPRINNGIHDEEALFEVLELSEEEFELDFHRLKSFNDVRVINNPDLSPECTNTAISRDETLESASSAFEVPSDEIAILSISSDSNKNSPPSEQPAPALRNIRSSSNSDRIDEWCLGSHLFNELHQNVPQSSDGVNHGFPVYSFKERELYTSAKLKKLTNAQRIAVQKLSRDLYPILRTCYREKTRRQLLTYHHERIFDDIPSFFPQRDFIFNYYSMPLEFDRLSDVDIDSSSRSRFTDESTGETLNRSPSAASSSLENTSWFGWTLLSRFLDREW [S31A] | disrupting interaction |
